Data taken from patent US20220396813.

How the values were obtained:
Assay in all cases: cell_activity
[1] = system: T1, Rec22 WP_016392893.1 (Pseudomonas plecoglossicida); details: HEK293T inversion; background 1.66
T1 sequence: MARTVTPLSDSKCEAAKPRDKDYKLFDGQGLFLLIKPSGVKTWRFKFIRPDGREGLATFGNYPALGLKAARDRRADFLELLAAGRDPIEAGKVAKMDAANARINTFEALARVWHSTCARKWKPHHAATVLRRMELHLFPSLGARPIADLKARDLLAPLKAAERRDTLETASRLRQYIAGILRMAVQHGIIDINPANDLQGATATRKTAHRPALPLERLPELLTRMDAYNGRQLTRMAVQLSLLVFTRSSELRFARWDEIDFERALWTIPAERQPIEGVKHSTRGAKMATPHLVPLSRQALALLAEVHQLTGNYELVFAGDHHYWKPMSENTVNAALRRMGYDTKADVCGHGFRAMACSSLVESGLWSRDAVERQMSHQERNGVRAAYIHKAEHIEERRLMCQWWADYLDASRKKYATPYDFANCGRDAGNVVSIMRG

[2] = system: T2, Rec24 WP_046407494.1 (Sphingomonas sp.); details: HEK293T inversion; background 2.34
T2 sequence: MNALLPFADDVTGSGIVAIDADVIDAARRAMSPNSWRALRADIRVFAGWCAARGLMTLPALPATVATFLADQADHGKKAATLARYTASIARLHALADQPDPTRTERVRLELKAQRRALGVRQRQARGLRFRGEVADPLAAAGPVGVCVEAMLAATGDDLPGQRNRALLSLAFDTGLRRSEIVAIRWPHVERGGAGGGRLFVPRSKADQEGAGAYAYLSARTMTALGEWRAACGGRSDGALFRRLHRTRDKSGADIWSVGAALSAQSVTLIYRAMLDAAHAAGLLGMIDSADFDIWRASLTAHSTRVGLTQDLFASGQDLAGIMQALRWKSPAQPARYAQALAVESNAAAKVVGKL

[3] = system: T3, Rec21 WP_010365336.1 (Pseudoalteromonas citrea); details: HEK293T inversion; background 4.91
T3 sequence: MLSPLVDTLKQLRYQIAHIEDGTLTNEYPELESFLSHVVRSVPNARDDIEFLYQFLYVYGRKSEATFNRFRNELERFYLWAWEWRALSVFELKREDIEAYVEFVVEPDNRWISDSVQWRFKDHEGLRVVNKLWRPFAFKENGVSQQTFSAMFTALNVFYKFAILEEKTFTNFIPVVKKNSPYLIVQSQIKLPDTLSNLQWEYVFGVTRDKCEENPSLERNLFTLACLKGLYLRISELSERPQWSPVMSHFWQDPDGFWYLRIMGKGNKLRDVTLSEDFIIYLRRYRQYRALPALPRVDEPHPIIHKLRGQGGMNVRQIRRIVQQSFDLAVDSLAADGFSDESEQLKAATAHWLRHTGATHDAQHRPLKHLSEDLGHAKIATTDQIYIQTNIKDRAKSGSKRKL

[4] = system: T4, Rec18 WP_007635552.1 (Paraglaciecola psychrophila); details: HEK293T inversion; background 1.255
T4 sequence: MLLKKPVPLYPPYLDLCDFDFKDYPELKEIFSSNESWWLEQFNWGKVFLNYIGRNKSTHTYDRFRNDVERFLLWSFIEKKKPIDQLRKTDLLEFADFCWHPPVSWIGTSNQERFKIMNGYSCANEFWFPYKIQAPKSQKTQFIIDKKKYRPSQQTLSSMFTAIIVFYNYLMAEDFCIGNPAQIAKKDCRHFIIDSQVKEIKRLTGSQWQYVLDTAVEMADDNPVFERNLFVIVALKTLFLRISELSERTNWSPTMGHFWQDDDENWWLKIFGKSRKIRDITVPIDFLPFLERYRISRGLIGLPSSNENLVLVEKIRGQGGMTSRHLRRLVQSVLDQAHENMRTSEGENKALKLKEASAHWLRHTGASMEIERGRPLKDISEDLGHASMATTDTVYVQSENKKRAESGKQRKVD

Sequence “GACCACTCCAGANNNNNNNNNTCTGGAGTGGTG (double strand) [Rec22 natural site]” has an activity [1] of 1.45 % GFP+.
Sequence “GCACTAGCGATANNNNNNNNTATCACTAGTGC (double strand) [Rec24 natural site]” has an activity [2] of 17.1 % GFP+.
For “TAATGTCCAATANNNNNNNNTATCGGACATAA (double strand) [Rec21 natural site]”, the activity [3] was 4.75 % GFP+.
Work on “TTATGTCCAATANNNNNNNNTATTGGACATAG (double strand) [Rec17-18 natural site]” yielded an activity [4] of 0.202 % GFP+.
